Data on three molecules can be found in patent publication US20200332015A1 (NAMAB THERAPEUTICS, published 2020).

Numbering of substitutions follows the chain as printed. Where “and” joins values, the source holds several entries; their conditions need not be identical. Equal values may be shown once. Read-outs that look alike come from different tables or passages of the source. A value given as a limit tells only on which side of the number the result lay.

In test [1] the target is human PDL1 on cells (antigen-presenting cells and T cells of SEA stimulated human PBMC) (human, UniProt Q9NZQ7 19-290). The experiment in a line: cell-based or functional assay.
Test [2] addresses human PDL1-Fc chimeric protein (human, UniProt Q9NZQ7 19-238, limits assumed). The experiment in a line: SPR T200, antigen-Fc captured, molecule as analyte. In a few lines: (§1)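 Apparent KD, ka and kd come from a one-to-one Langmuir model. Species Fc proteins were captured on an immobilized anti-Fc surface, and analyte at 0.12-90 nM (three-fold series) was flowed 3 min with 10-min dissociation; surfaces were stripped with 3 M MgCl₂.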

Test [3] addresses cynomolgus PDL1-Fc chimeric protein (cynomolgus, UniProt G7PSE7 19-238). The experiment in a line: SPR T200, antigen-Fc captured, molecule as analyte. In a few lines: as §1
Test [4] addresses T1, human CD137 expressed on Jurkat cells (human, UniProt Q07011 24-255). The experiment in a line: cell-based or functional assay.
Test [5] has as its target T1, human CD137 expressed on Jurkat cells. The experiment in a line: cell-based or functional assay. This is another data set of the same source.
The target is the same in test [6]. The experiment in a line: cell-based or functional assay. This is another data set of the same source.
Test [7] has the same target. The experiment in a line: cell-based or functional assay. The source holds these as a separate data set.
Test [8] shares this target. The experiment in a line: cell-based or functional assay. This is another data set of the same source.
Test [9] shares this target. The experiment in a line: cell-based or functional assay. The source holds these as a separate data set.
The target is the same in test [10]. The experiment in a line: cell-based or functional assay. The source holds these as a separate data set.
The target is the same in test [11]. The experiment in a line: cell-based or functional assay. This is another data set of the same source.
The target is the same in test [12]. The experiment in a line: cell-based or functional assay. The source holds these as a separate data set.
Test [13] has the same target. The experiment in a line: cell-based or functional assay. This is another data set of the same source.
The target of test [14] is T2, Fc tagged human CD137 (R&D Systems, cat. 838-4B-100) (human, UniProt Q07011 24-186).
T2 construct: also called CD137 Fc chimera; human CD137-Fc chimeric protein
The experiment in a line: SPR T200, antigen-Fc captured, molecule as analyte. In short, it runs like this:
as §1

Test [15] has as its target T3, cynomolgus monkey Fc-tagged CD137 (R&D Systems, cat. 9324-4B-100) (cynomolgus monkey, UniProt A9YYE7 24-186).
T3 construct: also called cynomolgus CD137-Fc chimeric protein
The experiment in a line: SPR T200, antigen-Fc captured, molecule as analyte. In a few lines:
as §1

Test [16] concerns the target T4, mouse Fc-tagged mouse CD137 (R&D Systems, cat. 937-4B-050) (mouse, UniProt P20334 24-187).
T4 construct: also called mouse CD137-Fc chimeric protein
T4 sequence (looked up): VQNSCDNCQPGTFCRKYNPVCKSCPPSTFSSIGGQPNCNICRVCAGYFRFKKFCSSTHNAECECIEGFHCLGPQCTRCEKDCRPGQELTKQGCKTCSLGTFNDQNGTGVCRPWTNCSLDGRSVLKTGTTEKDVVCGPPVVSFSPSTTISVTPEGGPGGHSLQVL
The experiment in a line: SPR T200, antigen-Fc captured, molecule as analyte. In a few lines: as §1

Test [17] has as its target T2, Fc tagged human CD137 (R&D Systems, …). The experiment in a line: SPR T200, antigen-Fc captured, molecule as analyte. This is another data set of the same source.

Sequence of cynomolgus PDL1-Fc chimeric protein (G7PSE7 entry or part of it mutant): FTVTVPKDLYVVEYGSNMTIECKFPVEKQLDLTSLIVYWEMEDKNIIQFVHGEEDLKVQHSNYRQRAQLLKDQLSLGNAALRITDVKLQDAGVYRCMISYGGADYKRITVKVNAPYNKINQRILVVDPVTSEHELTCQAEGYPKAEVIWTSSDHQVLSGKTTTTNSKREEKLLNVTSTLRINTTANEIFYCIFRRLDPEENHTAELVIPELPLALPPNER
T3 sequence (A9YYE7 entry or part of it): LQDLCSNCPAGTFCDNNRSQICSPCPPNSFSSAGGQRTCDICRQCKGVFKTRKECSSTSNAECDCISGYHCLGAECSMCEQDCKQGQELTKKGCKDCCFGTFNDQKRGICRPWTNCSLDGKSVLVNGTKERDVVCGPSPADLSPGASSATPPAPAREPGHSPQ

B1: PRO997 (37-20-B03 CDR, scFv) (scFv)
scFv: DIQMTQSPSSLSASVGDRVTITCQASQSIGTYLAWYQQKPGKAPKLLIYRAFILASGVPSRFSGSGSGTDFTLTISSLQPEDFATYYCQSNFYSDSTTIGPNAFGTGTKVTVLGGGGGSGGGGSGGGGSGGGGSQVQLQESGPGLVKPSETLSLTCKVSGFSFNSDYWIYWIRQPPGKGLEWIGSIYGGSSGNTQYASWAQGRVTISVDSSKNQFSLKLSSVTAADTAVYYCARGYVDYGGATDLWGQGTLVTVSS
notes: also called anti-PDL1 scFv PRO997
Regarding B1, the “EC50 of IL-2 secretion, SEA stimulated PBMC, 96 h” value in test [1] is 0.0409 µg/mL. In test [2], the Kd was not above 0.0017 nM, the koff is less than 1e-05 s⁻¹ and the kon was 5.9e+06 M⁻¹ s⁻¹. Besides, in test [3], the Kd is less than 0.00167 nM, the koff is less than 1e-05 s⁻¹ and the kon came to 6e+06 M⁻¹ s⁻¹.

B2: PRO885 (38-02-A04 sc01 scDb-i/33-03-G02 sc01 scDb-o) (bispecific antibody)
chain: DIQMTQSPSSLSASVGDRVTITCQASQSINDYLAWYQQKPGKAPKLLIYKASTLASGVPSRFSGSGSGTDFTLTISSLQPEDFATYYCQQGYIITDIDNVFGTGTKVTVLGGGGGSQVQLQESGPGLVKPSETLSLTCKVSGFSFSNSYWICWIRQPPGKGLEWIGCTFVGSSDSTYYANWAKGRVTISVDSSKNQFSLKLSSVTAADTAVYYCARHPSDAVYGYANNLWGQGTLVTVSSGGGGSGGGGSGGGGSGGGGSIQMTQSPSSLSASVGDRVTITCQASQSINNVLAWYQQKPGKAPKLLIYRASTLASGVPSRFSGSGSGTDFTLTISSLQPEDFATYYCQSSYGNYGDFGTGTKVTVLGGGGGSQVQLQESGPGLVKPSETLSLTCKVSGFSFSSGYDMCWIRQPPGKGLEWIGCVVAGSVDITYYASWAKGRVTISVDSSKNQFSLKLSSVTAADTAVYYCARKDAYSDAFNLWGQGTLVTVSS
notes: scDb, PDL1 x CD137; also called anti-PDL1xCD137 scDb
In the case of B2, the “EC50 NFkB-luciferase, CHO-PDL1 cells” value in [4] came to 0.0117 µg/mL. Further, in test [5], the “EC50 NFkB-luciferase, CHO-PDL1 cells” value was 0.0063 µg/mL and 0.00513 µg/mL and 0.00486 µg/mL. Besides, the “EC50 NFkB-luciferase, HCC827 without IFNy” value in test [6] is 0.0115 µg/mL and 0.0131 µg/mL and 0.013 µg/mL. For the same molecule, the “EC50 NFkB-luciferase, HCC827 with IFNy” value in test [7] was 0.00927 µg/mL and 0.00888 µg/mL and 0.00923 µg/mL. Also, in [8], the “EC50 NFkB-luciferase, CHO-PDL1 cells, 6 h” value is 0.00784 µg/mL; the “EC50 NFkB-luciferase, CHO-PDL1 cells, 6 h, + HSA” value was found to be 0.00792 µg/mL; the “Top of curve fit, NFkB-luciferase, CHO-PDL1 cells, 6 h, + HSA” value is 493. Moreover, in test [9], the “EC50 NFkB-luciferase, CHO-PDL1 cells, 24 h” value was 0.0138 µg/mL; the “EC50 NFkB-luciferase, CHO-PDL1 cells, 24 h, + HBA (so in the source)” value amounted to 0.0149 µg/mL; the “Top of curve fit, NFkB-luciferase, CHO-PDL1 cells, 24 h, + HBA (so in the source)” value turned out to be 258. Further, in test [10], the “EC50 NFkB-luciferase, HCC827 with IFNy stimulation” value came out at 0.00751 µg/mL and the “EC50 NFkB-luciferase, HCC827 without IFNy stimulation” value stood at 0.00952 µg/mL. For the same molecule, in [11], the “EC50 of IL-2 secretion, PBMC + CHO-PDL1 50,000 cells/well, anti-CD3 1 ug/ml” value was 0.0129 µg/mL; the “EC50 of IL-2 secretion, PBMC + CHO-PDL1 50,000 cells/well, anti-CD3 2 ug/ml” value was 0.052 µg/mL; the “EC50 of IL-2 secretion, PBMC + CHO-PDL1 100,000 cells/well, anti-CD3 1 ug/ml” value is 0.0862 µg/mL; the “EC50 of IL-2 secretion, PBMC + CHO-PDL1 100,000 cells/well, anti-CD3 2 ug/ml” value was determined as 0.0419 µg/mL. Moreover, in test [11], the “EC50 of IL-2 secretion, PBMC + CHO-PDL1 200,000 cells/well, anti-CD3 1 ug/ml” value came to 0.0806 µg/mL and the “EC50 of IL-2 secretion, PBMC + CHO-PDL1 200,000 cells/well, anti-CD3 2 ug/ml” value is 0.0301 µg/mL. In addition, in test [12], the “max. activation, HCC827 +IFNg” value was 134%; the “max. activation, HCC827 -IFNg” value amounted to 111%; the “max. activation, NF-kB reporter gene, CHO-PD-L1” value turned out to be 499%; the “rel. IC50 (urelumab/test), HCC827 +IFNg” value was found to be 16.3 ratio. Besides, in test [12], the “rel. IC50 (urelumab/test), HCC827 -IFNg” value is 8.42 ratio and the “rel. IC50 (urelumab/test), NF-kB reporter gene, CHO-PD-L1” value amounted to 6.75 ratio. Moreover, in test [13], the “EC50 of IL-2 secretion, SEA stimulated PBMC, 96 h” value was 0.0399 µg/mL. In test [2], this molecule returned a Kd of 0.065 nM, a koff of 0.00014 s⁻¹ and a kon of 2.1e+06 M⁻¹ s⁻¹. In addition, in [14], the Kd stood at 3.2 nM, the koff worked out at 0.00076 s⁻¹ and the kon was determined as 240000 M⁻¹ s⁻¹. In [15], this molecule came in with a Kd of 2.1 nM, a koff of 0.0007 s⁻¹ and a kon of 340000 M⁻¹ s⁻¹. In [16], the dissociation constant Kd was 600 nM, the koff came to 0.18 s⁻¹ and the kon was 290000 M⁻¹ s⁻¹.

B3: PRO1124 (38-02-A04 sc06 Full scDb-i/33_03_G02 scDb-o) (bispecific antibody)
chain: B2 chain with V140A, I154V, V190K, F197V, Y213F, I261L, A302P
notes: scDb; also called PR01124
With B3, in test [5], the “EC50 NFkB-luciferase, CHO-PDL1 cells” value is 0.00368 µg/mL and the “Top of curve fit, NFkB-luciferase, CHO-PDL1 cells” value is 229. Moreover, in test [6], the “EC50 NFkB-luciferase, HCC827 without IFNy” value was 0.00562 µg/mL and the “Top of curve fit, NFkB-luciferase, HCC827 without IFNy” value amounted to 113. Moreover, in test [7], the “EC50 NFkB-luciferase, HCC827 with IFNy” value worked out at 0.00483 µg/mL and the “Top of curve fit, NFkB-luciferase, HCC827 with IFNy” value was 188. In test [12], the “max. activation, HCC827 +IFNg” value is 188%; the “max. activation, HCC827 -IFNg” value worked out at 113%; the “max. activation, NF-kB reporter gene, CHO-PD-L1” value stood at 229%; the “rel. IC50 (urelumab/test), HCC827 +IFNg” value was found to be 22.4 ratio. Besides, in [12], the “rel. IC50 (urelumab/test), HCC827 -IFNg” value was determined as 19.9 ratio and the “rel. IC50 (urelumab/test), NF-kB reporter gene, CHO-PD-L1” value came to 23.5 ratio. For the same molecule, the “fold improvement of affinity against PRO885” value in test [17] was more than 200 fold. Besides, in test [2], the Kd stood at 0.067 nM, the koff stood at 0.0002 s⁻¹ and the kon was determined as 3.1e+06 M⁻¹ s⁻¹. In [14], this molecule registered an equilibrium dissociation constant (Kd) not above 0.015 nM, a dissociation rate constant (koff) of less than 1e-05 s⁻¹ and a kon of 680000 M⁻¹ s⁻¹. In addition, in test [15], binding was put at a Kd of 0.59 nM, the koff is 0.00033 s⁻¹ and the association rate constant (kon) was 560000 M⁻¹ s⁻¹. In test [16], binding was characterised by a dissociation constant (Kd) of 11 nM, the koff is 0.0022 s⁻¹ and the kon came out at 200000 M⁻¹ s⁻¹.

Usually Kd stands for the concentration at which binding is half-saturated. A word on the koff: it is a measure of how fast the partners let go of each other. In general, kon refers to a measure of how fast the partners come together.
